{
  "source": "paper PMC8399836",
  "target": "individual G6PD protein (g6pd region of the fused G6PD::6PGL enzyme from Giardia lamblia) (Giardia lamblia)",
  "assay": "SEC; size exclusion chromatography (gel filtration) of the purified individual G6PD protein; one peak with G6PD activity; column and buffer not told in the text shown",
  "data": [
    {"substance": "individual G6PD protein (g6pd region of the fused G6PD::6PGL enzyme from Giardia lamblia) (domain or fragment)", "values": [
      {"measurement": "stoichiometry N", "value": 2}
    ]}
  ]
}
